Laboratory results as given in paper doi:10.1101/2024.04.22.590578.

Key:
Test in all cases: crystal structure
[1] = target: SARS-CoV-2 M^pro G15S (SARS-CoV-2)
[2] = target: SARS-CoV-2 M^pro K90R (SARS-CoV-2)
[3] = target: SARS-CoV-2 M^pro M49I (SARS-CoV-2)
[4] = target: SARS-CoV-2 M^pro P132H (SARS-CoV-2)
[5] = target: SARS-CoV-2 M^pro S46F (SARS-CoV-2)
[6] = target: SARS-CoV-2 M^pro V186F (SARS-CoV-2)
[7] = target: SARS-CoV-2 M^pro Y54C (SARS-CoV-2)

SARS-CoV-2 M^pro G15S (enzyme) gave a stoichiometry N [1] of 2.

For SARS-CoV-2 M^pro K90R (enzyme), the stoichiometry N [2] was 2.

With SARS-CoV-2 M^pro M49I (enzyme) the stoichiometry N [3] was 2.

With SARS-CoV-2 M^pro P132H (enzyme) the stoichiometry N [4] was 2.

SARS-CoV-2 M^pro S46F (enzyme) gave a stoichiometry N [5] of 2.

With SARS-CoV-2 M^pro V186F (enzyme) the stoichiometry N [6] was 2.

SARS-CoV-2 M^pro Y54C (enzyme) was tested, and the stoichiometry N [7] was 2.
